# Measured values taken from US7514215B2, “Sulfotransferase SULT2A1 sequence variants” (Mayo Foundation for Medical Education and Research, priority 2001, dated 2009).
# Residue numbers refer to the chain shown, from its start. Where two headings read alike, the source gives them in different places.
# B1: Ala63Pro: SULT2A1 allozyme having a proline at amino acid residue 63 in place of alanine (protein, UniProt Q06520 1-285, looked up, variant A63P)
# Sulfotransferase 2A1: MSDDFLWFEGIAFPTMGFRSETLRKVRDEFVIRDEDVIILTYPKSGTNWLAEILCLMHSKGDPKWIQSVPIWERSPWVESEIGYTALSETESPRLFSSHLPIQLFPKSFFSSKAKVIYLMRNPRDVLVSGYFFWKNMKFIKKPKSWEEYFEWFCQGTVLYGSWFDHIHGWMPMREEKNFLLLSYEELKQDTGRTIEKICQFLGKTLEPEELNLILKNSSFQSMKENKMSNYSLLSVDYVVDKAQLLRKGVSGDWKNHFTVAQAEDFDKLFQEKMADLPRELFPWE
# B2: 63Pro/261Thr: SULT2A1 polypeptide with a proline at position 63 and a threonine at position 261 (double variant) (protein, UniProt Q06520 1-285, looked up, variant A63P A261T)
# Sulfotransferase 2A1: B1 Sulfotransferase 2A1 with A261T
# B3: WT: recombinant wild type (reference) human SULT2A1 polypeptide, SEQ ID NO:3, expressed in COS-1 cells (protein, listed as Homo Sapiens)
# chain: B1 Sulfotransferase 2A1 with P63A, T90S
# B4: Lys227Glu: SULT2A1 allozyme having a glutamate at amino acid residue 227 in place of a lysine (protein, UniProt Q06520 1-285, looked up, variant K227E)
# Sulfotransferase 2A1: B1 Sulfotransferase 2A1 with P63A, K227E
# B5: Ala261Thr: SULT2A1 allozyme having a threonine at amino acid 261 in place of an alanine (protein)
# chain: B1 Sulfotransferase 2A1 with P63A, T90S, A261T
# Tested on: SULT2A1
# Assay: SULT2A1 enzyme activity assay: sulfate conjugation of DHEA with 35S-PAPS, COS-1 cytosol preparations of recombinant allozymes
# Type: biochemical, human
# Details: for Enzyme Activity (%): percentage of WT SULT2A1 enzyme activity, 5 μM DHEA, 0.4 μM 35S-PAPS, COS-1 cytosol, corrected for transfection efficiency; for Enzyme activity: immunoreactive protein: ratio of enzymatic activity to immunoreactive protein; for decrease in enzyme activity: reduction relative to wild type
# Protocol: Activity of SULT2A1 polypeptides can be altered relative to the reference SULT2A1 polypeptide. […] Other allozymes can have increased activity relative to the reference SULT2A1 polypeptide. Activity of SULT2A1 polypeptides can be assessed in vitro using a sulfate acceptor substrate such as DHEA and a donor sulfate molecule such as PAPS. In general, recombinant SULT2A1 polypeptides can be incubated at 37° C. with 0.4 μM ^35S-PAPS and 5 μM DHEA in a potassium phosphate buffer (5 mM, pH 6.5). Reactions can be stopped by precipitating PAPS and SULT2A1 polypeptide (e.g., with barium hydroxide, barium acetate, and zinc sulfate). After centrifugation of the reaction, radioactivity in the supernatant is assessed. SULT2A1 activity is expressed as nmoles of sulfate conjugated product formed per hour of incubation. See, Campbell, N. R. C. et al., Biochem. Pharmacol., 36:1435-1446 (1987).
# COS-1 cell expression: Five different SULT2A1 expression constructs were made using the pCR3.1 expression vector. Four of the constructs were designed to express SULT2A1 allozymes, while the remaining construct was designed to express a wild type SULT2A1 polypeptide. All SULT2A1 cDNA sequences containing SULT2A1 nucleotide sequence variants used to create the expression constructs were created by site directed mutagenesis using the method described by Ho et al., Gene 77(1):51-9 (1989). Each SULT2A1 cDNA was amplified by PCR and subcloned into the eukaryotic expression vector pCR3.1 (Promega, Madison, Wis.). After subcloning, all inserts were sequenced to assure that no spurious nucleotide point mutations had been introduced during the PCR amplifications. […] As a control, a transfection was also performed with “empty” pCR3.1, i.e., vector lacking an insert, to make it possible to correct for endogenous COS-1 cell SULT activity. The control plasmid pSV-β-galactosidase (Promega) was cotransfected with each SULT2A1 construct to make it possible to correct for transfection efficiency. Two independent transfections, each consisting of three separate plates, were performed with each of the expression constructs.
# After 48 hours in culture, the transfected cells were harvested and high speed supernatant (HSS) cytosol preparations were prepared as described by Wood, T. C. et al., Biochem. Biophys. Res. Commun., 198:1119-1127 (1994). Aliquots of these cytosol preparations were stored at −80° C. prior to assay.
# Enzyme Assays: β-galactosidase activity in each of the COS-1 HSS preparations was measured with the β-galactosidase Enzyme Assay System (Promega, Madison, Wis.). These HSS preparations of recombinant SULT2A1 allozymes were used for the activity studies without any further purification. The protein concentration of each recombinant protein preparation was determined by the dye-binding method of Bradford with bovine serum albumin (BSA) as a standard.
# SULT2A1 enzyme activity was measured with an assay that involves sulfate conjugation of a sulfate acceptor substrate, DHEA, in the presence of the sulfate donor 3′-phosphoadenosine-5′-phosphosulfate (PAPS). See, Campbell, N. R. C. et al., Biochem. Pharmacol., 36:1435-1446 (1987). Briefly, 0.4 μM ^35S-PAPS and a HSS preparation were reacted with 5 μM DHEA in 5 mM potassium phosphate buffer at pH 6.5. […] Cytosol from COS-1 cells that had been transfected with empty pCR3.1 was used to correct for endogenous SULT activity. Because SULTs display profound substrate inhibition, DHEA concentrations that ranged from 100 pM to 1 mM were tested with each recombinant allozyme to ensure that the assays were performed at DHEA concentrations that yielded maximal activity for that allozyme. Enzyme activity was expressed as nanomoles (nmoles) of sulfate conjugated product formed per hour of incubation. Apparent Km values for PAPS were determined in the presence of 5 μM DHEA with six PAPS concentrations that varied from 0.0625 μM to 2 μM. […]
# [1] = apparent Km for DHEA, read-out: DHEA Km
# [2] = apparent Km for PAPS in the presence of 5 μM DHEA, read-out: PAPS Km
activity relative to the reference SULT2A1 polypeptide (in words),Molecule,Km [1] [µM],Km [2] [µM],Enzyme Activity (%),Enzyme activity: immunoreactive protein,decrease in enzyme activity [%]
reduced activity,B1,0.21 ± 0.01,0.0082 ± 0.00132,57,2.1,43
reduced activity,B2,0.29 ± 0.012,0.0114 ± 0.0003,42,1.6,
,B3,0.247 ± 0.071,0.0218 ± 0.00086,100,1.0,
reduced activity,B4,0.905 ± 0.053,0.0102 ± 0.00096,15,7.5,

Molecule,activity relative to the reference SULT2A1 polypeptide (in words),Km [1] [µM],Km [2] [µM],Enzyme Activity (%),Enzyme activity: immunoreactive protein,decrease in enzyme activity [%]
B5,comparable to the reference SULT2A1 polypeptide,0.245 ± 0.012,0.0227 ± 0.00062,,1.2,85
